The source of these data is paper PMC4460183, “Catalytic and hydrodynamic properties of styrene monooxygenases from Rhodococcus opacus 1CP are modulated by cofactor binding” (AMB Express, 2015).

By stoichiometry N is commonly meant a count of units in the complex or per binding partner. As a reminder, the Km is the substrate concentration at which the rate is half of its maximum. One may read the kcat as the maximal rate divided by the concentration of active sites. As usually defined, the kcat/Km is the second-order rate constant that governs catalysis at low substrate concentration.

The target in data set [1] is StyA2B self-sufficient styrene monooxygenase from Rhodococcus opacus 1CP (Rhodococcus opacus 1CP) (UniProt C7ACG1). In words: SEC; analytical gel filtration, Superdex 200 HR 10/30, 22°C, 10 mM Tris-HCl pH 7.2, 500 mM NaCl; reduced holoenzyme, 12.7 µM FAD and 1 mM sodium dithionite, anaerobic buffer. (In gel filtration, larger molecules generally elute earlier.)
Data set [2] has the same target. As to the kind of experiment: SEC; analytical gel filtration, Superdex 200 HR 10/30, 22°C, 10 mM Tris-HCl pH 7.2, 500 mM NaCl; oxidized holoenzyme, 12.7 µM FAD in buffer and sample.
For data set [3] the target is unchanged. In words: SEC; analytical gel filtration, Superdex 200 HR 10/30, 22°C, 0.6 mL/min, 10 mM Tris-HCl pH 7.2, 500 mM NaCl; 100 µL of protein (1.95 mg/mL StyA1, 2.17 mg/mL StyA2B, 11.45 mg/mL StyA); apo-enzyme, no FAD.
Another data set has as its target T1, StyA (Rhodococcus opacus, UniProt A0A076JVU4).
T1 construct: full length, 427 residues, 46,580 Da calculated; apo form purified; monomer; P. fluorescens ST StyB as coupling reductase in oxygenase assays
In words: HPLC of phenyl vinyl sulfoxide formed. The conditions noted are these: StyB of P. fluorescens ST (threefold excess), FAD, NADH regeneration by formate dehydrogenase, catalase. Format: biochemical.

The target of data set [4] is StyA1 styrene monooxygenase from Rhodococcus opacus 1CP (Rhodococcus opacus 1CP) (UniProt C7ACG0). In words: SEC; analytical gel filtration, Superdex 200 HR 10/30, 22°C, 10 mM Tris-HCl pH 7.2, 500 mM NaCl; reduced holoenzyme, 12.7 µM FAD and 1 mM sodium dithionite, anaerobic buffer.
Data set [5] shares this target. In words: SEC; analytical gel filtration, Superdex 200 HR 10/30, 22°C, 10 mM Tris-HCl pH 7.2, 500 mM NaCl; oxidized holoenzyme, 12.7 µM FAD in buffer and sample.
For data set [6] the target is unchanged. As to the kind of experiment: SEC; analytical gel filtration, Superdex 200 HR 10/30, 22°C, 0.6 mL/min, 10 mM Tris-HCl pH 7.2, 500 mM NaCl; 100 µL of protein (1.95 mg/mL StyA1, 2.17 mg/mL StyA2B, 11.45 mg/mL StyA); apo-enzyme, no FAD.
Another data set has as its target T2, StyA1 (Rhodococcus opacus, UniProt C7ACG0).
T2 construct: N-terminal His10 tag kept, E. coli BL21; apo form purified; monomer-dimer, dimer with reduced FAD; oxygenase assays with P. fluorescens ST StyB as coupling reductase
As to the kind of experiment: analytical gel filtration, oligomer shift. Format: binding. The conditions noted are these: 12.7 µM FAD, no dithionite; 10 mM Tris-HCl pH 7.2, 500 mM NaCl, 22 °C.

Substrate in data set [7]: NC(=O)C1=CN([C@@H]2O[C@H](COP(=O)(O)OP(=O)(O)OC[C@H]3O[C@@H](n4cnc5c(N)ncnc54)[C@H](O)[C@@H]3O)[C@@H](O)[C@H]2O)C=CC1
In words: NADH consumption, spectrophotometric, Michaelis-Menten fit. Format: biochemical, Rhodococcus opacus. The conditions noted are these: FAD in excess, 8 mM Tris-HCl pH 7.5, 30 °C, read at 320 nm, apparent constant. The source says: (§1) NADH consumption, spectrophotometric, Michaelis-Menten fit on StyB-1CP (StyB from Rhodococcus opacus 1CP)

Substrate in data set [8]: Cc1cc2nc3c(=O)[nH]c(=O)nc-3n(C[C@H](O)[C@H](O)[C@H](O)COP(=O)(O)OP(=O)(O)OC[C@H]3O[C@@H](n4cnc5c(N)ncnc54)[C@H](O)[C@@H]3O)c2cc1C
The data set is described as above. Format: biochemical, Rhodococcus opacus. The conditions noted are these: NADH in excess, 8 mM Tris-HCl pH 7.5, 30 °C, read at 320 nm, apparent constant.
Description: as §1

Data set [9] deals with the molecule itself. In words: SEC; data not shown; StyB in the presence of the cofactor FAD; method taken from the section on quaternary structure (analytical gel filtration), not given.
Substrate in data set [10]: NC(=O)C1=CN([C@@H]2O[C@H](COP(=O)(O)OP(=O)(O)OC[C@H]3O[C@@H](n4cnc5c(N)ncnc54)[C@H](O)[C@@H]3O)[C@@H](O)[C@H]2O)C=CC1
As to the kind of experiment: purified protein. Format: biochemical, Pseudomonas fluorescens. The conditions noted are these: FAD in excess, 8 mM Tris-HCl pH 7.5, 30 °C.

Substrate in data set [11]: Cc1cc2nc3c(=O)[nH]c(=O)nc-3n(C[C@H](O)[C@H](O)[C@H](O)COP(=O)(O)OP(=O)(O)OC[C@H]3O[C@@H](n4cnc5c(N)ncnc54)[C@H](O)[C@@H]3O)c2cc1C
As to the kind of experiment: purified protein. The conditions noted are these: NADH in excess, 8 mM Tris-HCl pH 7.5, 30 °C. Format: biochemical, Pseudomonas fluorescens.

Data set [12] deals with the molecule itself. In words: SEC; analytical gel filtration, Superdex 200 HR 10/30, 22°C, 10 mM Tris-HCl pH 7.2, 500 mM NaCl; oxidized holoenzyme, 12.7 µM FAD in buffer and sample.
Data set [13] deals with the molecule itself. As to the kind of experiment: SEC; analytical gel filtration, Superdex 200 HR 10/30, 22°C, 0.6 mL/min, 10 mM Tris-HCl pH 7.2, 500 mM NaCl; 100 µL of protein (1.95 mg/mL StyA1, 2.17 mg/mL StyA2B, 11.45 mg/mL StyA); apo-enzyme, no FAD.

Where “and” joins values, the source holds several entries; their conditions need not be identical. Equal entries are not always repeated.

T2 sequence (C7ACG0 entry or part of it): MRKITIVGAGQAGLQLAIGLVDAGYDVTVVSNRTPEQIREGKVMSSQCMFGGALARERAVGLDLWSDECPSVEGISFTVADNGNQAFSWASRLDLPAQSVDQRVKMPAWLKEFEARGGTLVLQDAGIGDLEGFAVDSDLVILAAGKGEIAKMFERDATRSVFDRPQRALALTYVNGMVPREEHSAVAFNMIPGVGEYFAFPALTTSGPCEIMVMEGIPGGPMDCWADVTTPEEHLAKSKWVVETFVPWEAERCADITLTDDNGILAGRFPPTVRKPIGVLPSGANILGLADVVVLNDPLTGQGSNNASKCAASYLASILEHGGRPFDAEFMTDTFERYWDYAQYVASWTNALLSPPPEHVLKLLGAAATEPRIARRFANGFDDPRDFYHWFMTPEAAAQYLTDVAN

In the case of “StyA2B self-sufficient styrene monooxygenase from Rhodococcus opacus 1CP (from UniProt C7ACG1 1-573) (enzyme)”, the stoichiometry N in [1], in data set [2] and in data set [3] was 2 throughout.

Turning to `C=CSc1ccccc1` [phenyl vinyl sulfide], the “HPLC of phenyl vinyl sulfoxide formed” value at StyA is recorded as “All three SMO isoforms were found to convert this substrate”.

Turning to “StyA1 styrene monooxygenase from Rhodococcus opacus 1CP (from UniProt C7ACG0 1-406) (enzyme)”, the stoichiometry N in data set [4], in [5] and in data set [6] was 2 each time.

In the case of `Cc1cc2nc3c(=O)[nH]c(=O)nc-3n(C[C@H](O)[C@H](O)[C@H](O)COP(=O)(O)OP(=O)(O)OC[C@H]3O[C@@H](n4cnc5c(N)ncnc54)[C@H](O)[C@@H]3O)c2cc1C` [FAD], the “analytical gel filtration, oligomer shift” value on StyA1 is on record as “For holo-StyA1, the equilibrium shifted towards the dimeric form”.

B1: StyB flavin reductase from Rhodococcus opacus 1CP (enzyme, UniProt A0A076K0M4 1-177, looked up)
chain: MTRAAEAPPAPEVLSAPVEVAADSTQFRNSVALFATGIAVVTMQDGEGGVHGATINSFTSISLDPPTVMISLKPGYAHELISKSGWYGVSVLSKTQQEHSRYFCGTRDSDWHPQFVAGENVPTLFGSLARFECKVIDTITVNDHTLFLARVARCESEDGSPLMFFASTYHQPALGES
notes: StyB, FAD reductase of the styABCD cluster, Rhodococcus opacus 1CP, 178 amino acid residues, calculated mass 19,053 Da; also called StyB-1CP; source: E. coli BL21, purified (HisTrap FF IMAC), concentrated in the presence of 10 µM FAD
As to B1, in data set [7], the Km is 59.3 ± 4.2 µM, the kcat was 26.9 ± 0.6 s⁻¹ and the kcat/Km was 454000 M⁻¹ s⁻¹. For the same molecule, in [8], the Michaelis-Menten constant (Km) was determined as 108.3 ± 18.3 µM, the kcat was found to be 32.9 ± 2.3 s⁻¹ and the kcat/Km came out at 304000 M⁻¹ s⁻¹. Besides, in [9], the “stoichiometry N” value was determined as 2.

B2: StyB-ST (StyB from P. fluorescens ST) (Pseudomonas fluorescens) (protein)
chain: MTLKKDVAVDIDSTCFRQAVALFATGIAVLSAETEEGEVHGMTVNSFTSISLDPPTVMVSLKSGRMHELLTRGGRFGVSLLGESQKVFSAFFSKRVMDDTPSPAFTIQAGLPTLRDAMAWFECEVESTVQVHDHTLFIARVSACGTPEANAPQPLLFFASRYHGKPLPLN
notes: full length; E. coli BL21
For the molecule B2, in the data set “purified protein [10]”, the Km was 18.9 ± 1.0 µM, the kcat was determined as 8.8 ± 0.1 s⁻¹ and the kcat/Km was 466000 M⁻¹ s⁻¹. For the same molecule, in “purified protein [11]”, the Km came out at 2.6 ± 0.4 µM, the kcat came out at 8.7 ± 0.3 s⁻¹ and the kcat/Km turned out to be 3.35e+06 M⁻¹ s⁻¹.

B3: StyA styrene monooxygenase from Rhodococcus opacus 1CP (styABCD cluster) (enzyme, UniProt A0A076JVU4 1-426, looked up)
chain: MSKRIAIVGAGTAGLHLGLYLNEKGIDATIFTDRRPEEYANIRLLNTVAHHSVTIDREDALGIDHWPNDGYFGHYYYVGIPGMPIRSYGDLAKPSRAVDYRILQPQLMRDFEERGGKIEYRPIRVEDLTVLSDDYDLVVIGTGKGGLGTLFARDEQSSPFTEPQRQLCVGIFKGIAPAETRAVTFCISPGAGEMIEIPTVTFSGDATALVFENHIGSDLEVLAHTRYEDDPRAFLDLMIEKLKQHYPITAERLDEKEFDVANSHLDILQGGVTPTVRHGHVKLDNGKLAVLLGDAHATVDPVLGQGGNMASYAAHVLGEEIAGNEVYDELFCERVDARRAGRVLGATRWTNFMLSNLKELPNHFVEFLGRVMMDRQLADRFTDNFNYPEKQWDIFSSPENMVAWIEANETGAEETERPFAQTGAQS
notes: StyA of the styABCD cluster, Rhodococcus opacus 1CP, 427 amino acid residues, calculated mass 46,580 Da; amplified from genomic DNA with printed primers that hold the start codon (NdeI CATATG) and the stop codon (TCA in the reverse primer); Apparent subunit mass 50 kDa including the His-tag (SDS-PAGE); also called holo-StyA; source: E. coli BL21, purified (HisTrap FF IMAC)
Regarding B3, the “stoichiometry N” value in [12] is 2; in data set [13], 2 and 4.
